Experimental data published in US20140087995A1 (published 2014).
Numbered stars: 1 amine (or outer) side, 2 acyl side, 3 side chain; on linkers, the order of the positions; unused ones are H or OH. Bridge positions count the residues as written; N and C are the ends. Side chains are listed from the residue outwards. Ends that are not written are not given here. * marks the point of attachment. C20 diacid = O=C(O)CCCCCCCCCCCCCCCCCCC(=O)*; C18 diacid = O=C(O)CCCCCCCCCCCCCCCCC(=O)*; γGlu = O=C(O)[C@H](CCC(=O)[*:2])N[*:1]

T1: rat amylin receptor (rat calcitonin receptor + rat RAMP 3) (rat, UniProt P32214 25-516; Q9JJ73 23-147)
T1 construct: whole, on cells; Membranes prepared from transiently transfected BHK tk'ts 13 cells; also called rAmylin-R; rat amylin 3(a) receptor
T1 sequence (looked up) 1: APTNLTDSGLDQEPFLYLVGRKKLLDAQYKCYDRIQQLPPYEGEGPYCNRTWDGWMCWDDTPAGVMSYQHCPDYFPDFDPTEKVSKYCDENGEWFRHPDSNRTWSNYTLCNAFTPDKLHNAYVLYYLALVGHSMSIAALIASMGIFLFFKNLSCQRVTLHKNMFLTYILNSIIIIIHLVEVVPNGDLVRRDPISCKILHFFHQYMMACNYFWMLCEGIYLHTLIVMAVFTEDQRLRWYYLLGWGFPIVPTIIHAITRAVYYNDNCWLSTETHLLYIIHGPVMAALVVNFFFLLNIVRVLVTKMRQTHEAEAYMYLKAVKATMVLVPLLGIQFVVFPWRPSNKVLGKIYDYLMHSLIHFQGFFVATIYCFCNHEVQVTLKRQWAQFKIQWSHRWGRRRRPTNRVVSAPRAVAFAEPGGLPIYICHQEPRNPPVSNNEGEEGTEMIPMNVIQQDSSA
T1 sequence (looked up) 2: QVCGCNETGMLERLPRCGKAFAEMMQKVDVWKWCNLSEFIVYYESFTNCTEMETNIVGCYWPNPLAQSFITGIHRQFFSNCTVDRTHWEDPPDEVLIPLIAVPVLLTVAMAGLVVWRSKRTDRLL

T2: rat calcitonin receptor (rat, UniProt P32214 25-516)
T2 construct: whole, on cells; Membranes prepared from transiently transfected BHK tk'ts 13 cells; also called rCTR; rat calcitonin (a) receptor
T2 sequence (looked up): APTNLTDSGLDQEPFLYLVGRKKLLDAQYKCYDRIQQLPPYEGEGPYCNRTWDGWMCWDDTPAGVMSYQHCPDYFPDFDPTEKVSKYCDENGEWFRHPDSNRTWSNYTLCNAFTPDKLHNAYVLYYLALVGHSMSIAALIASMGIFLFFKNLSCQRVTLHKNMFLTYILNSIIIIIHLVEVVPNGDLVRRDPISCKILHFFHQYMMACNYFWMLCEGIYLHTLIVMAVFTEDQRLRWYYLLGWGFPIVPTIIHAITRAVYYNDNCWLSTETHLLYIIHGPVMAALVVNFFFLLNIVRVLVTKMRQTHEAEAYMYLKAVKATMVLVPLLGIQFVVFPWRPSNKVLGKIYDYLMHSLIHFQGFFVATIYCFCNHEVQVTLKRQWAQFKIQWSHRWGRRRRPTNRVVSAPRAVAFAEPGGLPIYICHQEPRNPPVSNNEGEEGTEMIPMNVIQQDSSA

T3: human calcitonin receptor (human, UniProt P30988 25-474)
T3 construct: whole, on cells; Membranes from stably transfected BHK cells; also called hCTR; hCT
T3 sequence (looked up): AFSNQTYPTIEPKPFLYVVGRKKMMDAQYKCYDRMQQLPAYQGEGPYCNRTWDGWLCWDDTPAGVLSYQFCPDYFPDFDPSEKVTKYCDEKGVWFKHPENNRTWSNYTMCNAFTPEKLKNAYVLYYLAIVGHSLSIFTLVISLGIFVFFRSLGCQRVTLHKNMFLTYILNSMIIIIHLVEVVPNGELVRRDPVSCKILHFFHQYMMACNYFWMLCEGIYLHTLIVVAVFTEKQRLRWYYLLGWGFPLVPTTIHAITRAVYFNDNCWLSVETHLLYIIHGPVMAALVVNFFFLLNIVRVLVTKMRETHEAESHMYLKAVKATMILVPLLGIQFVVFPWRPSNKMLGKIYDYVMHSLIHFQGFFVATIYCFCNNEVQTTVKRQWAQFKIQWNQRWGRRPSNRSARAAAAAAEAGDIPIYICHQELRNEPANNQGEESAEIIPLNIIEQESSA


Assays:
[1] = target: T1, rat amylin receptor (rat calcitonin …); assay: SPA competition vs 125I-rat amylin, membranes (Assay VI)
[2] = target: T2, rat calcitonin receptor; assay: SPA competition vs 125I-calcitonin, membranes (Assay VIII)
[3] = target: T2, rat calcitonin receptor; assay: ratio of IC50 on rat calcitonin receptor to IC50 on rat amylin receptor
[4] = target: T3, human calcitonin receptor; assay: ratio of IC50 on human calcitonin receptor to IC50 on human amylin receptor
Experimental: The resulting pellet was resuspended, homogenized and centrifuged (20.000 rpm, 15 min) in a buffer containing 20 mM Na-HEPES and 0.1 mM EDTA (pH 7.4, buffer 2). The resulting pellet was resuspended in buffer 2 and protein concentration was measured (BCA protein Assay, Pierce). The homogenate was kept cold during the whole procedure. The membranes were kept at −80° C. until use. The assay was performed in a 384 well Optiplate (PerkinElmer) in a total volume of 40 ul. Membranes were mixed with SPA beads. Final concentration of membranes 35 ng/μL final and SPA beads was 0.05 mg/well. Test-compounds were dissolved in DMSO and further diluted in assay buffer (50 mM Hepes, pH 7.4, 1 mM CaCl2, 5 mM MgCl₂, 0.1% OA and 0.02% Tween20). […] The final mixture was incubated with shaking at 400 rpm for 120 min at 25° C. prior to centrifugation (1500 rpm, 10 min). Samples were analyzed on TopCounter™ (Packard). The IC₅₀ was calculated using (one site binding competition analysis) GraphPad Prism5 as a measure of receptor affinity.
Membranes were prepared in the following way; the cells were rinsed with PBS and incubated with Versene for approximately 5 min before harvesting. The cells were flushed with PBS and the cell-suspension was centrifuged for 5 min at 1000 rpm. Cells were homogenized (Ultrathurrax) in a buffer containing 20 mM Na-HEPES and 10 mM EDTA (pH 7.4) and centrifuged at 20.000 rpm for 15 min. The resulting pellet was resuspended, homogenized and centrifuged (20.000 rpm, 15 min) in a buffer containing 20 mM Na-HEPES and 0.1 mM EDTA (pH 7.4, buffer 2). The resulting pellet was resuspended in buffer 2 and protein concentration was measured (BCA protein Assay, Pierce). The homogenate was kept cold during the whole procedure. The membranes were kept at −80° C. until use. Assay was performed in a 384 well Optiplate (PerkinElmer) in a total volume of 40 ul. Membranes were mixed with SPA beads.

IC50 [1] [nM]	IC50 [2] [nM]	Ratio rCT/rAmylin binding [3]	Ratio hCT/hAmylin binding [4]	Binder
1.17	47	40.3	59.4	K([γGlu-C18 diacid])CNTATCATQRLANFLRHSSPNFGAIPSSTNVGHNTY-NH2 (disulfide 2-7; N-terminus assumed; SMILES CC[C@H](C)[C@H](NC(=O)[C@H](C)NC(=O)CNC(=O)[C@H](Cc1ccccc1)NC(=O)[C@H](CC(N)=O)NC(=O)[C@@H]1CCCN1C(=O)[C@H](CO)NC(=O)[C@H](CO)NC(=O)[C@H](Cc1c[nH]cn1)NC(=O)[C@H](CCCNC(=N)N)NC(=O)[C@H](CC(C)C)NC(=O)[C@H](Cc1ccccc1)NC(=O)[C@H](CC(N)=O)NC(=O)[C@H](C)NC(=O)[C@H](CC(C)C)NC(=O)[C@H](CCCNC(=N)N)NC(=O)[C@H](CCC(N)=O)NC(=O)[C@@H](NC(=O)[C@H](C)NC(=O)[C@@H]1CSSC[C@H](NC(=O)[C@@H](N)CCCCNC(=O)CC[C@H](NC(=O)CCCCCCCCCCCCCCCCC(=O)O)C(=O)O)C(=O)N[C@@H](CC(N)=O)C(=O)N[C@@H]([C@@H](C)O)C(=O)N[C@@H](C)C(=O)N[C@@H]([C@@H](C)O)C(=O)N1)[C@@H](C)O)C(=O)N1CCC[C@H]1C(=O)N[C@@H](CO)C(=O)N[C@@H](CO)C(=O)N[C@H](C(=O)N[C@@H](CC(N)=O)C(=O)N[C@H](C(=O)NCC(=O)N[C@@H](Cc1c[nH]cn1)C(=O)N[C@@H](CC(N)=O)C(=O)N[C@H](C(=O)N[C@@H](Cc1ccc(O)cc1)C(N)=O)[C@@H](C)O)C(C)C)[C@@H](C)O) [N^ε1-[(4S)-4-carboxy-4-(17-carboxyheptadecanoylamino)butanoyl]-[Arg17,Pro21,Pro27,His34]-h-amylin]
0.504	58.5	116	151	K([γGlu-C20 diacid])CNTATCATQRLADFLRHSSPNFGAIPSSTNVGPRTY-NH2 (disulfide 2-7; N-terminus assumed; SMILES CC[C@H](C)[C@H](NC(=O)[C@H](C)NC(=O)CNC(=O)[C@H](Cc1ccccc1)NC(=O)[C@H](CC(N)=O)NC(=O)[C@@H]1CCCN1C(=O)[C@H](CO)NC(=O)[C@H](CO)NC(=O)[C@H](Cc1c[nH]cn1)NC(=O)[C@H](CCCNC(=N)N)NC(=O)[C@H](CC(C)C)NC(=O)[C@H](Cc1ccccc1)NC(=O)[C@H](CC(=O)O)NC(=O)[C@H](C)NC(=O)[C@H](CC(C)C)NC(=O)[C@H](CCCNC(=N)N)NC(=O)[C@H](CCC(N)=O)NC(=O)[C@@H](NC(=O)[C@H](C)NC(=O)[C@@H]1CSSC[C@H](NC(=O)[C@@H](N)CCCCNC(=O)CC[C@H](NC(=O)CCCCCCCCCCCCCCCCCCC(=O)O)C(=O)O)C(=O)N[C@@H](CC(N)=O)C(=O)N[C@@H]([C@@H](C)O)C(=O)N[C@@H](C)C(=O)N[C@@H]([C@@H](C)O)C(=O)N1)[C@@H](C)O)C(=O)N1CCC[C@H]1C(=O)N[C@@H](CO)C(=O)N[C@@H](CO)C(=O)N[C@H](C(=O)N[C@@H](CC(N)=O)C(=O)N[C@H](C(=O)NCC(=O)N1CCC[C@H]1C(=O)N[C@@H](CCCNC(=N)N)C(=O)N[C@H](C(=O)N[C@@H](Cc1ccc(O)cc1)C(N)=O)[C@@H](C)O)C(C)C)[C@@H](C)O)
0.3	18.6	62	16.7	K([γGlu-C20 diacid])CNTATCATQRLADFLRHSSPNFGAIPSSTNVGPETY-NH2 (disulfide 2-7; N-terminus assumed; SMILES CC[C@H](C)[C@H](NC(=O)[C@H](C)NC(=O)CNC(=O)[C@H](Cc1ccccc1)NC(=O)[C@H](CC(N)=O)NC(=O)[C@@H]1CCCN1C(=O)[C@H](CO)NC(=O)[C@H](CO)NC(=O)[C@H](Cc1c[nH]cn1)NC(=O)[C@H](CCCNC(=N)N)NC(=O)[C@H](CC(C)C)NC(=O)[C@H](Cc1ccccc1)NC(=O)[C@H](CC(=O)O)NC(=O)[C@H](C)NC(=O)[C@H](CC(C)C)NC(=O)[C@H](CCCNC(=N)N)NC(=O)[C@H](CCC(N)=O)NC(=O)[C@@H](NC(=O)[C@H](C)NC(=O)[C@@H]1CSSC[C@H](NC(=O)[C@@H](N)CCCCNC(=O)CC[C@H](NC(=O)CCCCCCCCCCCCCCCCCCC(=O)O)C(=O)O)C(=O)N[C@@H](CC(N)=O)C(=O)N[C@@H]([C@@H](C)O)C(=O)N[C@@H](C)C(=O)N[C@@H]([C@@H](C)O)C(=O)N1)[C@@H](C)O)C(=O)N1CCC[C@H]1C(=O)N[C@@H](CO)C(=O)N[C@@H](CO)C(=O)N[C@H](C(=O)N[C@@H](CC(N)=O)C(=O)N[C@H](C(=O)NCC(=O)N1CCC[C@H]1C(=O)N[C@@H](CCC(=O)O)C(=O)N[C@H](C(=O)N[C@@H](Cc1ccc(O)cc1)C(N)=O)[C@@H](C)O)C(C)C)[C@@H](C)O)
0.397	111	280	46.3	K([γGlu-C20 diacid])CNTATCATQRLAAFLRHSSPNFGAIPSSTNVGPNTY-NH2 (disulfide 2-7; N-terminus assumed; SMILES CC[C@H](C)[C@H](NC(=O)[C@H](C)NC(=O)CNC(=O)[C@H](Cc1ccccc1)NC(=O)[C@H](CC(N)=O)NC(=O)[C@@H]1CCCN1C(=O)[C@H](CO)NC(=O)[C@H](CO)NC(=O)[C@H](Cc1c[nH]cn1)NC(=O)[C@H](CCCNC(=N)N)NC(=O)[C@H](CC(C)C)NC(=O)[C@H](Cc1ccccc1)NC(=O)[C@H](C)NC(=O)[C@H](C)NC(=O)[C@H](CC(C)C)NC(=O)[C@H](CCCNC(=N)N)NC(=O)[C@H](CCC(N)=O)NC(=O)[C@@H](NC(=O)[C@H](C)NC(=O)[C@@H]1CSSC[C@H](NC(=O)[C@@H](N)CCCCNC(=O)CC[C@H](NC(=O)CCCCCCCCCCCCCCCCCCC(=O)O)C(=O)O)C(=O)N[C@@H](CC(N)=O)C(=O)N[C@@H]([C@@H](C)O)C(=O)N[C@@H](C)C(=O)N[C@@H]([C@@H](C)O)C(=O)N1)[C@@H](C)O)C(=O)N1CCC[C@H]1C(=O)N[C@@H](CO)C(=O)N[C@@H](CO)C(=O)N[C@H](C(=O)N[C@@H](CC(N)=O)C(=O)N[C@H](C(=O)NCC(=O)N1CCC[C@H]1C(=O)N[C@@H](CC(N)=O)C(=O)N[C@H](C(=O)N[C@@H](Cc1ccc(O)cc1)C(N)=O)[C@@H](C)O)C(C)C)[C@@H](C)O, also called compound 94)
